From paper PMC5159498 come the findings set out here.

The target of assay [1] is CDC42 Q61L (human) (UniProt P60953). Put plainly: fluorescence polarisation; GRD1-CT (0-2.5 μM) or GRD2 (0-7.5 μM) titrated to tGppNHp-bound CDC42 Q61L (1 μM); 30 mM Tris/HCl pH 7.5, 150 mM NaCl, 5 mM MgCl2, 3 mM DTT, 25 °C.
For assay [2] the target is unchanged. Put plainly: fluorescence polarisation; IQGAP1 variant titrated to mGppNHp-bound RHO protein (1 μM); equilibrium Kd (eKd), quadratic fit; 30 mM Tris/HCl pH 7.5, 150 mM NaCl, 5 mM MgCl2, 3 mM DTT, 25 °C. (Polarisation of emitted light reports the rotation of a fluorescent probe.)
For assay [3] the target is unchanged. Put plainly: stopped-flow fluorometry; tGppNHp (tamra-GppNHp)-bound CDC42 or CDC42 Q61L (0.2 μM) rapidly mixed with IQGAP1 variant (2-10 μM GRD1-CT for Q61L); Kd = koff/kon; 30 mM Tris-HCl pH 7.5, 10 mM KH2PO4/K2HPO4, 5 mM MgCl2, 3 mM DTT.
Assay [4] has as its target CDC42 (aa 1-178) (human) (UniProt P60953). Put plainly: fluorescence polarisation; IQGAP1 variant titrated to mGDP-bound (inactive) RHO protein (1 μM), same conditions as with mGppNHp; 30 mM Tris/HCl pH 7.5, 150 mM NaCl, 5 mM MgCl2, 3 mM DTT, 25 °C.
For the next assay, the target named is RAC1 (aa 1-179) (human) (UniProt P63000). Nature of the assay: fluorescence polarisation; IQGAP1 variant titrated to mGppNHp-bound RHO protein (1 μM); equilibrium Kd (eKd), quadratic fit; 30 mM Tris/HCl pH 7.5, 150 mM NaCl, 5 mM MgCl2, 3 mM DTT, 25 °C.
Assay [5] concerns the target CDC42 (aa 1-178) (human) (UniProt P60953). The assay is described as above.

The Kd is the equilibrium constant for the complex coming apart.

IQGAP1 GRD1-CT (aa 863-1657), sequence (P46940 863-1657): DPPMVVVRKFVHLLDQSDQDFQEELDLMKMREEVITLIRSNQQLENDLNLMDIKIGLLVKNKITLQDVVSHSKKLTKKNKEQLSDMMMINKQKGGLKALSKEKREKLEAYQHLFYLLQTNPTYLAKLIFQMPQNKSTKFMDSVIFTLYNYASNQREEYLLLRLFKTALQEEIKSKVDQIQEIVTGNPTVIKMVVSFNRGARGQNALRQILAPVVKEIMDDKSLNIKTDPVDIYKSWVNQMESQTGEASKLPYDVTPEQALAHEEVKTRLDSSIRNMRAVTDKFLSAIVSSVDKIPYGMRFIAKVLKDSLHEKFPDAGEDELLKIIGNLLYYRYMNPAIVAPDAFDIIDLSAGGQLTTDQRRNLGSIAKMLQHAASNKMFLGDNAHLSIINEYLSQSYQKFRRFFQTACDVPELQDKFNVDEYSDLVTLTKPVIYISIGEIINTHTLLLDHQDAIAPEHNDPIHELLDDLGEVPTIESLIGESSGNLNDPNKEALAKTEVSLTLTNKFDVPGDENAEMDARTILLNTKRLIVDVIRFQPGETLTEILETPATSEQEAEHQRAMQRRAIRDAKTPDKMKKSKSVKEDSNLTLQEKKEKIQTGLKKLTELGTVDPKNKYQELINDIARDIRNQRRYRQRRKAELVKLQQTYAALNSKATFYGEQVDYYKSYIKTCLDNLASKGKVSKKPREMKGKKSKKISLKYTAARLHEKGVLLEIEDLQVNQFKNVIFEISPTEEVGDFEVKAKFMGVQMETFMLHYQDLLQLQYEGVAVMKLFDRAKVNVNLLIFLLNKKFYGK
IQGAP1 GRD2 (aa 962-1345), sequence (P46940 962-1345): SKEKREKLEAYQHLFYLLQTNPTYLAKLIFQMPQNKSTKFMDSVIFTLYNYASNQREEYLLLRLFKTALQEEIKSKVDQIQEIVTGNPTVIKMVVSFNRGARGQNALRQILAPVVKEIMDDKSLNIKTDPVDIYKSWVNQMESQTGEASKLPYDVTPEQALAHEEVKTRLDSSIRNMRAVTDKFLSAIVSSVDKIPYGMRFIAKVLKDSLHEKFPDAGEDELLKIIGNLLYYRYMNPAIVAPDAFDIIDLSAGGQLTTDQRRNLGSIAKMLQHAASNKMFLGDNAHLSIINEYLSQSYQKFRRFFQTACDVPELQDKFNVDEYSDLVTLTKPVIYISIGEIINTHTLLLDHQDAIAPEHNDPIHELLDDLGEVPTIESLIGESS
CDC42 (aa 1-178) (human), sequence (P60953 1-178): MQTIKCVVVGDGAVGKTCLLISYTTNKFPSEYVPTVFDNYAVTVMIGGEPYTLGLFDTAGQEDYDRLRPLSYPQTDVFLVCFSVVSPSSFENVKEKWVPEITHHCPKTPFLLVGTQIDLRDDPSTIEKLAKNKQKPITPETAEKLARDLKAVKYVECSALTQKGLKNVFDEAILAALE

Turning to “IQGAP1 GRD1-CT (aa 863-1657) (from UniProt P46940 863-1657) (domain or fragment)”, the Kd came out at 520 nM with CDC42 Q61L (human) [1], 830 nM in the assay with CDC42 Q61L (human) [2] and 50 nM with CDC42 Q61L (human) [3].

Turning to “IQGAP1 GRD2 (aa 962-1345) (from UniProt P46940 962-1345) (domain or fragment)”, the dissociation constant Kd with CDC42 Q61L (human) [1] came out at 1130 nM; with CDC42 (aa 1-178) (human) [4], 185000 nM; with CDC42 Q61L (human) [2], 2370 nM; with RAC1 (aa 1-179) (human) it was 81500 nM; with CDC42 (aa 1-178) (human) [5], 30200 nM.
